This note sets out measurements from publication PMC11219949.

As a reminder, the stoichiometry N is the number of molecules, sites or subunits per partner or assembly.

Experiment [1] concerns the target Recombinant His-tagged AUREO1c protein (Phaeodactylum tricornutum aureochrome 1c) (Phaeodactylum tricornutum). Briefly: native MS; UHPLC-native MS (Waters BEH SEC column, 100 mM ammonium acetate, room temperature); 5 uM protein in PBS incubated in the dark for 60 min, then cross-linked with 5 uM BS3 and quenched with Tris. For orientation: SEC sorts molecules by how far they enter the pores of the column.

The target is the same in experiment [2]. In words: native MS; UHPLC-native MS (Waters BEH SEC column, 100 mM ammonium acetate, room temperature); 5 uM protein in PBS incubated under blue light (200 umol photons m^-2 s^-1) for 60 min, then cross-linked with 5 uM BS3 and quenched with Tris.

Take “Recombinant His-tagged AUREO1c protein (Phaeodactylum tricornutum aureochrome 1c) (natural protein)”: the stoichiometry N in experiment [1] and in experiment [2] was 2 each time.
